From doi:10.1101/2020.04.07.028951 (bioRxiv, 2020)

Columns and labels:
[1] = molecular target: Clostridium novyi CBS-PPase (cnPPase) (Clostridium novyi); assay: AUC
[2] = molecular target: Clostridium novyi CBS-PPase (cnPPase) (Clostridium novyi); assay: cross-linking
[3] = molecular target: Ethanoligenens harbinense CBS-PPase (ehPPase) (Ethanoligenens harbinense); assay: AUC
[4] = molecular target: Ethanoligenens harbinense CBS-PPase (ehPPase) (Ethanoligenens harbinense); assay: cross-linking
[5] = molecular target: Eggerthella lenta CBS-PPase (elPPase) (Eggerthella lenta); assay: AUC
[6] = molecular target: Desulfitobacterium hafniense CBS-PPase (dhPPase), full-size (Desulfitobacterium hafniense); assay: AUC
[7] = molecular target: Desulfitobacterium hafniense CBS-PPase (dhPPase), full-size (Desulfitobacterium hafniense); assay: cross-linking
[8] = molecular target: Desulfitobacterium hafniense CBS-PPase (dhPPase), full-size (Desulfitobacterium hafniense); assay: enzyme activity after dilution
[9] = molecular target: dhPPaseΔCDC, separate catalytic part of D. hafniense CBS-PPase (Desulfitobacterium hafniense); assay: AUC
[10] = molecular target: dhPPaseΔCDC, separate catalytic part of D. hafniense CBS-PPase (Desulfitobacterium hafniense); assay: cross-linking
[11] = molecular target: dhPPaseΔCDC, separate catalytic part of D. hafniense CBS-PPase (Desulfitobacterium hafniense); assay: enzyme activity after dilution
[12] = molecular target: dhCDC, separate regulatory part of dhPPase (residues 63-306) (Desulfitobacterium hafniense); assay: AUC
[13] = molecular target: dhCDC, separate regulatory part of dhPPase (residues 63-306) (Desulfitobacterium hafniense); assay: cross-linking
[14] = molecular target: dhCDC, separate regulatory part of dhPPase (residues 63-306) (Desulfitobacterium hafniense); assay: AUC; remark: listed apart in the source
[15] = molecular target: the molecule itself; assay: cross-linking

Clostridium novyi CBS-PPase (cnPPase) (enzyme)
stoichiometry N [1]: 4 | stoichiometry N [2]: 4

Ethanoligenens harbinense CBS-PPase (ehPPase) (enzyme)
stoichiometry N [3]: 4 | stoichiometry N [4]: 2

Eggerthella lenta CBS-PPase (elPPase) (enzyme)
stoichiometry N [5]: 4

Desulfitobacterium hafniense CBS-PPase (dhPPase), full-size (enzyme)
stoichiometry N [6]: 4 | stoichiometry N [7]: 4 | percent dissociated at 3 µM [8]: 10% | percent tetrameric at 1 µM [8]: 79%

dhPPaseΔCDC, separate catalytic part of D. hafniense CBS-PPase (enzyme)
stoichiometry N [9]: 2 | stoichiometry N [10]: 2 | koff [11]: 0.04 s⁻¹ | percent dimeric at 5.8 µM [11]: 37%

dhCDC, separate regulatory part of dhPPase (residues 63-306) (domain or fragment)
stoichiometry N [12]: 2 | stoichiometry N [13]: 2 | stoichiometry N [14]: 2

B1: Clostridium perfringens CBS-PPase (cpPPase) (enzyme)
chain: MKDVIYITGHKNPDSDSICAALAYAEFKNKTQDTPAIPVRLGNVSQETQYILDYFGVEAPQFLETVKLKVEDLEMDKIAPLAPEVSLKMAWNIMRDKNLKSIPVADGNNHLLGMLSTSNITATYMDIWDSNILAKSATSLDNILDTLSAEAQNINEERKVFPGKVVVAAMQAESLKEFISEGDIAIAGDRAEIQAELIELKVSLLIVTGGHTPSKEIIELAKKNNITVITTPHDSFTASRLIVQSLPVDYVMTKDNLVAVSTDDLVEDVKVTMSETRYSNYPVIDENNKVVGSIARFHLISTHKKKVIQVDHNERGQSVHGLEDAEVLEIIDHHRVADIQTGNPIYFRNEPLGSTSTIVAKRFFENGIRPSREAAGLLCGAIISDTLLFKSPTCTPQDVKMCRKLAEIAGIVPETFAKEMFKAGTSLKGKSIEEIFNADFKPFTIEGVKVGVAQVNTMDIEGFMPLKGEMLDYMNQKAESMGLEMIMLLLTDIINEGSQILVAGRSPEIAEEAFKVKLEDSTTFLPGVLSRKKQVVPPLTQIITTRVSK
stoichiometry N [15]: 4
